Measured values from the supplement of paper PMC5998384.

How the values were obtained:
HeLa Kyoto [1] = assay: solubility in G1/S (NP-40 vs SDS abundance) (log2 ratio); higher = more soluble; conditions: cell cycle stage: G1/S
HeLa Kyoto [2] = assay: solubility change mitosis vs G1/S (difference of NP-40 vs SDS log2 ratios) (log2 ratio difference); higher = more soluble in mitosis
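For solubility change mitosis vs G1/S (difference of NP-40 vs SDS log2 ratios) in this document: synchronized HeLa Kyoto cells (double thymidine block for G1/S, nocodazole release for mitosis), protein amounts in NP-40 versus SDS lysates quantified by mass spectrometry, three biological replicates.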
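For solubility in G1/S (NP-40 vs SDS abundance) in this document: HeLa Kyoto cells arrested at G1/S by double thymidine block, proteins quantified by TMT10plex mass spectrometry in mild NP-40 versus SDS extracts, three biological replicates.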

## MSRRPCSCALRPPRCSCSASPSAVTAAGRPRPSDSCKEESSTLSVKMKCDFNCNHVHSGLKLVKPDDIGRLVSYTPAYLEGSCKDCIKDYERLSCIGSPIVSPRIVQLETESKRLHNKENQHVQQTLNSTNEIEALETSRLYEDSGYSSFSLQSGLSEHEEGSLLEENFGDSLQSCLLQIQSPDQYPNKNLLPVLHFEKVVCSTLKKNAKRNPKVDREMLKEIIARGNFRLQNIIGRKMGLECVDILSELFRRGLRHVLATILAQLSDMDLINVSKVSTTWKKILEDDKGAFQLYSKAIQRVTENNNKFSPHASTREYVMFRTPLASVQKSAAQTSLKKDAQTKLSNQGDQKGSTYSRHNEFSEVAKTLKKNESLKACIRCNSPAKYDCYLQRATCKREGCGFDYCTKCLCNYHTTKDCSDGKLLKASCKIGPLPGTKKSKKNLRRL [FBXO5]
HeLa Kyoto [1]
  solubility in G1/S (log2): 0.273
HeLa Kyoto [2]
  solubility change mitosis (log2): 0.249

## MAAANPWDPASAPNGAGLVLGHFIASGMVNQEMLNMSKKTVSCFVNFTRLQQITNIQAEIYQKNLEIELLKLEKDTADVVHPFFLAQKCHTLQSMNNHLEAVLKEKRSLRQRLLKPMCQENLPIEAVYHRYMVHLLELAVTFIERLETHLETIRNIPHLAANLKKMNQALAKMDILVTETEELAENILKWRKQQNEVSSCIPKILAEESYLYKHDIIMPPLPFTSKVHVQTINAK [HAUS2]
HeLa Kyoto [1]
  solubility in G1/S (log2): 0.261
HeLa Kyoto [2]
  solubility change mitosis (log2): -0.117

## MHARGPHGQLSPALPLASSVLMLLMSTLWLVGAGPGLVLAPELLLDPWQVHRLLTHALGHTALPGLLLSLLLLPTVGWQQECHLGTLRFLHASALLALASGLLAVLLAGLGLSSAAGSCGYMPVHLAMLAGEGHRPRRPRGALPPWLSPWLLLALTPLLSSEPPFLQLLCGLLAGLAYAAGAFRWLEPSERRLQVLQEGVLCRTLAGCWPLRLLATPGSLAELPVTHPAGVRPPIPGPPYVASPDLWSHWEDSALPPPSLRPVQPTWEGSSEAGLDWAGASFSPGTPMWAALDEQMLQEGIQASLLDGPAQEPQSAPWLSKSSVSSLRLQQLERMGFPTEQAVVALAATGRVEGAVSLLVGGQVGTETLVTHGKGGPAHSEGPGPP [RHBDD3]
HeLa Kyoto [1]
  solubility in G1/S (log2): -0.0767
HeLa Kyoto [2]
  solubility change mitosis (log2): 0.0168

## MSYCRQEGKDRIIFVTKEDHETPSSAELVADDPNDPYEEHGLILPNGNINWNCPCLGGMASGPCGEQFKSAFSCFHYSTEEIKGSDCVDQFRAMQECMQKYPDLYPQEDEDEEEEREKKPAEQAEETAPIEATATKEEEGSS [CHCHD4]
HeLa Kyoto [1]
  solubility in G1/S (log2): -0.518
HeLa Kyoto [2]
  solubility change mitosis (log2): -0.667

## MLARALLLCAVLALSHTANPCCSHPCQNRGVCMSVGFDQYKCDCTRTGFYGENCSTPEFLTRIKLFLKPTPNTVHYILTHFKGFWNVVNNIPFLRNAIMSYVLTSRSHLIDSPPTYNADYGYKSWEAFSNLSYYTRALPPVPDDCPTPLGVKGKKQLPDSNEIVEKLLLRRKFIPDPQGSNMMFAFFAQHFTHQFFKTDHKRGPAFTNGLGHGVDLNHIYGETLARQRKLRLFKDGKMKYQIIDGEMYPPTVKDTQAEMIYPPQVPEHLRFAVGQEVFGLVPGLMMYATIWLREHNRVCDVLKQEHPEWGDEQLFQTSRLILIGETIKIVIEDYVQHLSGYHFKLKFDPELLFNKQFQYQNRIAAEFNTLYHWHPLLPDTFQIHDQKYNYQQFIYNNSILLEHGITQFVESFTRQIAGRVAGGRNVPPAVQKVSQASIDQSRQMKYQSFNEYRKRFMLKPYESFEELTGEKEMSAELEALYGDIDAVELYPALLVEKPRPDAIFGETMVEVGAPFSLKGLMGNVICSPAYWKPSTFGGEVGFQIINTASIQSLICNNVKGCPFTSFSVPDPELIKTVTINASSSRSGLDDINPTVLLKERSTEL [PTGS2]
HeLa Kyoto [1]
  solubility in G1/S (log2): 0.069
HeLa Kyoto [2]
  solubility change mitosis (log2): -0.117
